The results in this text go back to article PMC5121451, “NADP-Dependent Aldehyde Dehydrogenase from Archaeon Pyrobaculum sp.1860: Structural and Functional Features” (Archaea, 2016).

In data set [1] the target is T1, AlDHPyr1147 (Pyrobaculum ferrireducens, UniProt G7VCG0).
T1 construct: gene P186_1147; homotetramer
T1 sequence (G7VCG0 1-491): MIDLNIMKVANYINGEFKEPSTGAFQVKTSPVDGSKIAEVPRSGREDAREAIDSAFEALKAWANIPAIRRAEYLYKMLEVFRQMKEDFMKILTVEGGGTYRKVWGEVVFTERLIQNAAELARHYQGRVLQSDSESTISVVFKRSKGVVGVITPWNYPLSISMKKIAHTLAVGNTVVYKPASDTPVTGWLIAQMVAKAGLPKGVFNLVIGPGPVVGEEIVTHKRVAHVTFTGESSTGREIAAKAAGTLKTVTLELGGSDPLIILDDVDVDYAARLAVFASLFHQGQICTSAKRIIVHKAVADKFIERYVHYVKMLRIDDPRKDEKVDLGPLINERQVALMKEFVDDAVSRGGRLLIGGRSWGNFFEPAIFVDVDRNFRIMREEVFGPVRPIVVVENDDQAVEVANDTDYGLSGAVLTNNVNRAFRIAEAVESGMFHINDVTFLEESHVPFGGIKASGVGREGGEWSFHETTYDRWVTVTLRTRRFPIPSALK
The experiment in a line: spectrofluorimetric titration of apo form. The data set is classed as binding. An excerpt:
spectrofluorimetric titration of apo form on AlDHPyr1147 | spectrofluorimetric titration of the apo form of AlDHPyr1147 with NADP+

Data set [2] deals with NADP-dependent aldehyde dehydrogenase AlDHPyr1147 from archaeon Pyrobaculum sp.1860 (Pyrobaculum sp.1860). Kind of data set: SEC; gel filtration of the apo form (coenzyme removed by heating at 85°C for 10-15 min), at room temperature.
For data set [3] the target is unchanged. Kind of data set: SEC; gel filtration of AlDHPyr1147 as isolated (with bound coenzyme); analytical column 10/300 GL, 50 mM sodium pyrophosphate pH 8.8, 100 mM NaCl, 22°C.
Data set [4] has the same target. The experiment in a line: crystal structure; apo form, three binary complexes with coenzyme (Holo-1, Holo-2, Holo-3) and ternary complex with NADP+ and isobutyraldehyde; space group P2(1)2(1)2, eight subunits (two tetramers) per asymmetric unit.
Data set [5] has as its target T1, AlDHPyr1147. The experiment in a line: spectrophotometric NADPH formation at […] nm. To be noted: 0.084 μM enzyme, 0.3 mM NADP+, 9 mM isobutyraldehyde, pH 8.8, 60 °C. It counts as biochemical.
Substrate in data set [6]: CC(C)C=O
Kind of data set: purified protein. The settings on record: 0.3 mM NADP+, 50 mM sodium pyrophosphate pH 8.8, 100 mM NaCl, 60 °C.

Substrate in data set [7]: O=C[C@H](O)CO
The experiment in a line: purified protein. To be noted: 0.3 mM NADP+, 50 mM sodium pyrophosphate pH 8.8, 100 mM NaCl, 60 °C.

Substrate in data set [8]: CCC=O
Kind of data set: purified protein. The settings on record: 0.3 mM NADP+, 50 mM sodium pyrophosphate pH 8.8, 100 mM NaCl, 60 °C. The data set is classed as biochemical, Pyrobaculum ferrireducens.

Substrate in data set [9]: NC(=O)c1ccc[n+]([C@@H]2O[C@H](COP(=O)(O)OP(=O)(O)OC[C@H]3O[C@@H](n4cnc5c(N)ncnc54)[C@H](OP(=O)(O)O)[C@@H]3O)[C@@H](O)[C@H]2O)c1
The experiment in a line: purified protein. The data set is classed as biochemical, Pyrobaculum ferrireducens. The settings on record: 60 °C, isobutyraldehyde oxidation, standard assay, 50 mM sodium pyrophosphate pH 8.8, 100 mM NaCl, varied: cofactor.

On AlDHPyr1147 [1], `NC(=O)c1ccc[n+]([C@@H]2O[C@H](COP(=O)(O)OP(=O)(O)OC[C@H]3O[C@@H](n4cnc5c(N)ncnc54)[C@H](OP(=O)(O)O)[C@@H]3O)[C@@H](O)[C@H]2O)c1` [NADP+] displayed an equilibrium dissociation constant (Kd) of 600 ± 80 nM.
On to “NADP-dependent aldehyde dehydrogenase AlDHPyr1147 from archaeon Pyrobaculum sp.1860 (enzyme)”, for which the stoichiometry N in [2], in data set [3] and in data set [4] was 4 in each case.
As for `NC(=O)C1=CN([C@@H]2O[C@H](COP(=O)(O)OP(=O)(O)OC[C@H]3O[C@@H](n4cnc5c(N)ncnc54)[C@H](OP(=O)(O)O)[C@@H]3O)[C@@H](O)[C@H]2O)C=CC1` [NADPH], the “% decrease in activity at 0.08 mM” value at AlDHPyr1147 [5] was 20%.

B1: AlDHPyr1147 (Pyrobaculum ferrireducens) (protein)
chain: MIDLNIMKVANYINGEFKEPSTGAFQVKTSPVDGSKIAEVPRSGREDAREAIDSAFEALKAWANIPAIRRAEYLYKMLEVFRQMKEDFMKILTVEGGGTYRKVWGEVVFTERLIQNAAELARHYQGRVLQSDSESTISVVFKRSKGVVGVITPWNYPLSISMKKIAHTLAVGNTVVYKPASDTPVTGWLIAQMVAKAGLPKGVFNLVIGPGPVVGEEIVTHKRVAHVTFTGESSTGREIAAKAAGTLKTVTLELGGSDPLIILDDVDVDYAARLAVFASLFHQGQICTSAKRIIVHKAVADKFIERYVHYVKMLRIDDPRKDEKVDLGPLINERQVALMKEFVDDAVSRGGRLLIGGRSWGNFFEPAIFVDVDRNFRIMREEVFGPVRPIVVVENDDQAVEVANDTDYGLSGAVLTNNVNRAFRIAEAVESGMFHINDVTFLEESHVPFGGIKASGVGREGGEWSFHETTYDRWVTVTLRTRRFPIPSALK
notes: homotetramer
Regarding B1, the Km in “purified protein [6]” amounted to 0.020 ± 0.003 M; in the data set “purified protein [7]”, 0.015 ± 0.006 M; in the data set “purified protein [8]”, 0.021 ± 0.0025 M; in the data set “purified protein [9]”, 20.9 ± 0.1 µM. For the same molecule, the kcat in “purified protein [6]” is 4.1 s⁻¹; in “purified protein [7]”, 1.2 s⁻¹; in “purified protein [8]”, 2.9 ± 0.16 s⁻¹. For the same molecule, the figures for the specificity constant (kcat/Km) in “purified protein [6]”, in the data set “purified protein [7]” and in “purified protein [8]” were 200 M⁻¹ s⁻¹, 80 M⁻¹ s⁻¹ and 140 ± 30 M⁻¹ s⁻¹, respectively.
